Test results taken from patent US20190225669A1 (ACCELERON PHARMA, published 2019).
Like-named read-outs stand apart in the source and are kept apart here.

Assays:
[1] = target: T1, GDF11 (UniProt O95390 299-407); test: Biacore SPR; † very low signal
T1 construct: also called BMP11
T1 sequence (looked up): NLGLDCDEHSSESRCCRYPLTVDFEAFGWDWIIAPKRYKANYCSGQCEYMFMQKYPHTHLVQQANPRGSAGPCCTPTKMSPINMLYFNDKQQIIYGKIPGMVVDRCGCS
Procedure: (§1) Ligands were injected and allowed to flow over the captured receptor protein.

[2] = target: T2, activin A (UniProt P08476 311-426); test: Biacore SPR
T2 sequence (looked up): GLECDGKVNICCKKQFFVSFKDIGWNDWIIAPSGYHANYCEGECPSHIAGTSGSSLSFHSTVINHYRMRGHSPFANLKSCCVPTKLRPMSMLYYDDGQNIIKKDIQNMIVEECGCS
Procedure: as §1

[3] = target: T1, GDF11; test: Biacore SPR
Procedure: as §1

[4] = target: T3, activin B (UniProt P09529 293-407); test: Biacore SPR
T3 sequence (looked up): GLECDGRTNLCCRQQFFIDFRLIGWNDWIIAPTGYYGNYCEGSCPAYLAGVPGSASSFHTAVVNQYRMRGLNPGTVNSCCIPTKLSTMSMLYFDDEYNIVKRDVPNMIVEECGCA
Procedure: as §1

[5] = target: T4, activin AC (UniProt P08476 311-426; P55103 237-352); test: Biacore SPR
T4 sequence (looked up) 1: T2 sequence (looked up)
T4 sequence (looked up) 2: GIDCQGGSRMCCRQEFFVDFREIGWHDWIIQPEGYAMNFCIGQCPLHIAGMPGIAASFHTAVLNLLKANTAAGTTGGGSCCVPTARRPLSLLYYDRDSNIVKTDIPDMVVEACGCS
Procedure: as §1

[6] = target: T2, activin A; test: Biacore SPR; remark: listed apart in the source
Procedure: as §1

[7] = target: T5, BMP10 (UniProt O95393 317-424); test: Biacore SPR
T5 sequence (looked up): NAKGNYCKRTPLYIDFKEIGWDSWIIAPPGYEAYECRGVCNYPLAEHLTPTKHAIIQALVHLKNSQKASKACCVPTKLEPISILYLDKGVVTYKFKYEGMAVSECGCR
Procedure: as §1

[8] = target: T1, GDF11; test: Biacore SPR; remark: listed apart in the source
Procedure: as §1

[9] = target: T6, BMP7 (UniProt P18075 293-431); test: Biacore SPR
T6 sequence (looked up): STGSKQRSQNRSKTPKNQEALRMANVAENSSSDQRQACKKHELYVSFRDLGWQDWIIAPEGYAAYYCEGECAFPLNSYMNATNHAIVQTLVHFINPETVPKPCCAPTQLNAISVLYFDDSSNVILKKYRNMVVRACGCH
Procedure: as §1

[10] = target: T7, BMP6 (UniProt P22004 382-513, limits assumed); test: Biacore SPR
T7 sequence (looked up): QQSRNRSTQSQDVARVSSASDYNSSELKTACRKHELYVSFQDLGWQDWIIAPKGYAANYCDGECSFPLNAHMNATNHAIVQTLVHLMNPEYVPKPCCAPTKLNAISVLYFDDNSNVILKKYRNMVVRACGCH
Procedure: as §1

[11] = target: T8, activin AB (UniProt P08476 311-426; P09529 293-407); test: Biacore SPR
T8 sequence (looked up) 1: T2 sequence (looked up)
T8 sequence (looked up) 2: T3 sequence (looked up)
Procedure: as §1

[12] = target: T1, GDF11; test: Biacore SPR; † very low signal; remark: listed apart in the source
Procedure: as §1

[13] = target: T2, activin A; test: Biacore SPR; remark: listed apart in the source
Procedure: as §1

[14] = target: T9, BMP15 (UniProt O95972 268-392); test: Biacore SPR
T9 construct: also called GDF9b
T9 sequence (looked up): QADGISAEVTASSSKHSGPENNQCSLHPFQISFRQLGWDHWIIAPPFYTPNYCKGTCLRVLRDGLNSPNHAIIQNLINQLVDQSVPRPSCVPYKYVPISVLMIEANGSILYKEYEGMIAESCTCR
Procedure: as §1

[15] = target: T8, activin AB; test: Biacore SPR; remark: listed apart in the source
Procedure: as §1

[16] = target: T10, BMP9 (UniProt Q9UK05 320-429); test: Biacore SPR
T10 construct: also called GDF2
T10 sequence (looked up): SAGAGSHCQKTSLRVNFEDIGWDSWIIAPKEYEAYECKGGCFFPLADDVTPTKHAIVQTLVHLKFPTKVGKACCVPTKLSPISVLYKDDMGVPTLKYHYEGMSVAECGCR
Procedure: as §1

[17] = target: T7, BMP6; test: Biacore SPR; remark: listed apart in the source
[18] = target: T5, BMP10; test: Biacore SPR; remark: listed apart in the source
Procedure: as §1

[19] = target: T6, BMP7; test: Biacore SPR; remark: listed apart in the source
Procedure: as §1

[20] = target: T7, BMP6; test: Biacore SPR; remark: listed apart in the source
Procedure: as §1

[21] = target: BMP2 (UniProt P12643 283-396); test: Biacore SPR
Procedure: as §1

[22] = target: T11, BMP5 (UniProt P22003 317-454, limits assumed); test: Biacore SPR
T11 sequence (looked up): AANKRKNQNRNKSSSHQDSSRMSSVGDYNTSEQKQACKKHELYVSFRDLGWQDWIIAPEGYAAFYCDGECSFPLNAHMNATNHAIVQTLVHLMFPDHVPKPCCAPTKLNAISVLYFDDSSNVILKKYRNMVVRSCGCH
Procedure: as §1

[23] = target: T9, BMP15; test: Biacore SPR; remark: listed apart in the source
Procedure: as §1

[24] = target: T12, BMP4 (UniProt P12644 293-408); test: Biacore SPR
T12 sequence (looked up): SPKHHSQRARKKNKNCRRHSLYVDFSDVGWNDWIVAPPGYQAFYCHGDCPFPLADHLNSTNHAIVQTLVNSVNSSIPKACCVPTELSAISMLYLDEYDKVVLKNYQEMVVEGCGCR
Procedure: as §1

[25] = target: T13, GDF6 (UniProt Q6KF10 336-455, limits assumed); test: Biacore SPR
T13 construct: also called BMP13
T13 sequence (looked up): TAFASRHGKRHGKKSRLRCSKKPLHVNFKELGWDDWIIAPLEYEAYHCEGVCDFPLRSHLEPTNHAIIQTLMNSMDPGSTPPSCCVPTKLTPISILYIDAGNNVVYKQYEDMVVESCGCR
Procedure: as §1

[26] = target: T10, BMP9; test: Biacore SPR; remark: listed apart in the source
Procedure: as §1

Chain of BMP2 (P12643 283-396 limits assumed): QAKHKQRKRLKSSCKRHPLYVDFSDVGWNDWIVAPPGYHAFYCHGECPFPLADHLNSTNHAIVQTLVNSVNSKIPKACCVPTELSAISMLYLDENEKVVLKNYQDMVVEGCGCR

B1: ALK4-Fc homodimer (Fc fusion, UniProt P36896 24-126, looked up, not shown: a dimerising Fc or GST)
chain: SGPRGVQALLCACTSCLQANYTCETDGACMVSIFNLDGMEHHVRTCIPKVELVPAGKPFYCLSSEDLRNTHCCYTDYCNRIDLRVPSGHLKEPEHPSMWGPVE
notes: extracellular domain
With B1 the Kd [1] was 0.97 nM, the Kd [2] was 20 nM and the koff [2] was 0.012 s⁻¹. The kon [2] was 580000 M⁻¹ s⁻¹, the koff [3] was 0.0048 s⁻¹ and the kon [3] was 5e+06 M⁻¹ s⁻¹. The binding result [4] was “no binding”, the binding result [5] was “no binding” and the Kd [6] was 20 nM. The koff [6] was 0.012 s⁻¹, the kon [6] was 580000 M⁻¹ s⁻¹ and the binding result [7] was “no binding”. The koff [8] was 0.0048 s⁻¹, the kon [8] was 5e+06 M⁻¹ s⁻¹ and the binding result [9] was “no binding”. For the same binder, the binding result [10] was “no binding”, the Kd [11] was 2 nM and the koff [11] was 0.0036 s⁻¹. The kon [11] was 1.8e+06 M⁻¹ s⁻¹, the Kd [12] was 0.97 nM and the Kd [13] was 20 nM. The koff [13] was 0.012 s⁻¹, the kon [13] was 580000 M⁻¹ s⁻¹ and the binding result [14] was “no binding”. The Kd [15] was 1.5 nM, the koff [15] was 0.0064 s⁻¹ and the kon [15] was 4.4e+06 M⁻¹ s⁻¹. B1: no binding [16].

B2: BMPRII-Fc:ALK3-Fc heterodimer (Fc fusion)
chain 1: SQNQERLCAFKDPYQQDLGIGESRISHENGTILCSKGSTCYGLWEKSKGDINLVKQGCWSHIGDPQECHYEECVVTTTPPSIQNGTYRFCCCSTDLCNVNFTENFPPPDTTPLSPPHSFNRDETGGGTHTCPPCPAPELLGGPSVFLFPPKPKDTLMISRTPEVTCVVVDVSHEDPEVKFNWYVDGVEVHNAKTKPREEQYNSTYRVVSVLTVLHQDWLNGKEYKCKVSNKALPAPIEKTISKAKGQPREPQVYTLPPSRKEMTKNQVSLTCLVKGFYPSDIAVEWESNGQPENNYKTTPPVLKSDGSFFLYSKLTVDKSRWQQGNVFSCSVMHEALHNHYTQKSLSLSPGK
chain 2: GAQNLDSMLHGTGMKSDSDQKKSENGVTLAPEDTLPFLKCYCSGHCPDDAINNTCITNGHCFAIIEEDDQGETTLASGCMKYEGSDFQCKDSPKAQLRRTIECCRTNLCNQYLQPTLPPVVIGPFFDGSIRTGGGTHTCPPCPAPELLGGPSVFLFPPKPKDTLMISRTPEVTCVVVDVSHEDPEVKFNWYVDGVEVHNAKTKPREEQYNSTYRVVSVLTVLHQDWLNGKEYKCKVSNKALPAPIEKTISKAKGQPREPQVYTLPPSREEMTKNQVSLTCLVKGFYPSDIAVEWESNGQPENNYDTTPPVLDSDGSFFLYSDLTVDKSRWQQGNVFSCSVMHEALHNHYTQKSLSLSPG
notes: C-terminal Lys optional; also called BMPRII-Fc:ALK3 heterodimer
In the case of B2, the “off-rate ratio against ALK3-Fc homodimer” value [17] is reported as ~10 fold, the Kd [18] is reported as 2.4 nM and the koff [18] is reported as 0.0016 s⁻¹. The kon [18] was 680000 M⁻¹ s⁻¹, the Kd [19] was 1 nM and the koff [19] was 0.012 s⁻¹. The kon [19] was 1.2e+07 M⁻¹ s⁻¹, the Kd [20] was 1.6 nM and the koff [20] was 0.00059 s⁻¹. It also gave a kon [20] of 360000 M⁻¹ s⁻¹, a Kd [21] of 0.051 nM and a koff [21] of 0.00015 s⁻¹. For the same binder, the kon [21] was 2.9e+06 M⁻¹ s⁻¹, the Kd [22] was 3.2 nM and the koff [22] was 0.0014 s⁻¹. For the same binder, the kon [22] was 430000 M⁻¹ s⁻¹, the Kd [23] was 6 nM and the koff [23] was 0.0055 s⁻¹. The kon [23] was 910000 M⁻¹ s⁻¹, the Kd [24] was 0.1 nM and the koff [24] was 9.1e-05 s⁻¹. It also gave a kon [24] of 910000 M⁻¹ s⁻¹, a Kd [25] of 1.4 nM and a koff [25] of 0.0019 s⁻¹. The kon [25] was 1.4e+06 M⁻¹ s⁻¹ and the binding result [26] was “no binding”.
